Results: patent publication US7585952 (BIOTECHNOL S A, dated 2009)

B1: Erbicin (soluble human anti-ErbB2 scFv) (scFv, not shown: small tags and cut ends)
scFv: QVQLLQSAAEVKKPGESLKISCKGSGYSFTSYWIGWVRQMPGKGLEWMGIIYPGDSDTRYSPSFQGQVTISADKSISTAYLQWSSLKASDTAVYYCARWRDSPLWGQGTLVTVSSGGGGSGGGGSGGSALQAVVTQEPSFSVSPGGTVTLTCGLSSGSVSTSYYPSWYQQTPGQAPRTLIYSTNTRSSGVPDRFSGSILGNKAALTITGAQADDESDYYCVLYMGSGQYVFGGGTKLTVLGHHHHHH
B2: hERB-RNase (Erbicin fused to human pancreatic ribonuclease) (other)
chain: QVQLLQSAAEVKKPGESLKISCKGSGYSFTSYWIGWVRQMPGKGLEWMGIIYPGDSDTRYSPSFQGQVTISADKSISTAYLQWSSLKASDTAVYYCARWRDSPLWGQGTLVTVSSGGGGSGGGGSGGSALQAVVTQEPSFSVSPGGTVTLTCGLSSGSVSTSYYPSWYQQTPGQAPRTLIYSTNTRSSGVPDRFSGSILGNKAALTITGAQADDESDYYCVLYMGSGQYVFGGGTKLTVLGAAASGGPEGGSKESRAKKFQRQHMDSDSSPSSSSTYCNQMMRRRNMTQGRCKPVNTFVHEPLVDVQNVCFQEKVTCKNGQGNCYKSNSSMHITDCRLTNGSRYPNCAYRTSPKERHIIVACEGSPYVPVHFDASVEDST
B3: Ph-Erbicin (human anti-ErbB2 scFv from type A clone, displayed on phage) (scFv)
scFv: QVQLLQSAAEVKKPGESLKISCKGSGYSFTSYWIGWVRQMPGKGLEWMGIIYPGDSDTRYSPSFQGQVTISADKSISTAYLQWSSLKASDTAVYYCARWRDSPLWGQGTLVTVSSGGGGSGGGGSGGSALQAVVTQEPSFSVSPGGTVTLTCGLSSGSVSTSYYPSWYQQTPGQAPRTLIYSTNTRSSGVPDRFSGSILGNKAALTITGAQADDESDYYCVLYMGSGQYVFGGGTKLTVLG
notes: Tested as whole phage particles carrying the scFv; also called A type phage clone; clone A

Columns and labels:
human ErbB2 receptor [1] = target: T1, human ErbB2 receptor (human, UniProt P04626 23-1255); test: cell-based or functional assay
[2] = target: T2, EGF receptor (EGFR, ErbB1) on A431 cells (human, UniProt P00533 25-1210); test: flow cytometry on A431 cells (EGFR at 2x10^6 receptors per cell)
T2 construct: whole, on cells; A431 cells also express ErbB2 at very low levels; also called homologous EGF receptor

human ErbB2 receptor [3] = target: T1, human ErbB2 receptor; test: cell-based or functional assay; remark: listed apart in the source

Row | Binder | IC50 of inhibition of SKBR3 cell proliferation, 72 h (human ErbB2 receptor [1]) | IC50 of inhibition of SKBR3 cell proliferation, expressed as scFv concentration in the phage preparation (human ErbB2 receptor [1]) | antitumor activity on SKBR3 cells relative to soluble Erbicin (human ErbB2 receptor [1]) | binding result [2] | Growth Inhibition (IC50, cfu/ml), BT-474 cells, 96 h (human ErbB2 receptor [3]) | Growth Inhibition (IC50, cfu/ml), MDA-MB453 cells, 96 h (human ErbB2 receptor [3]) | Growth Inhibition (IC50, cfu/ml), NIH 3T3 (ErbB2-trasf.) cells, 96 h (human ErbB2 receptor [3]) | Growth Inhibition (IC50, cfu/ml), SK-OV-3 cells, 96 h (human ErbB2 receptor [3]) | Growth Inhibition (IC50, cfu/ml), SKBR3 cells, 96 h (human ErbB2 receptor [3])
1 | B1 | 6.4 µg/mL |  |  |  |  |  |  |  | 
2 | B2 | ~20 nM |  |  |  |  |  |  |  | 
3 | B3 | 2.8e+10 cfu/ml | 0.0013 µg/mL | ~5000 fold | no binding | 2.5e+11 cfu/ml | 1.4e+11 cfu/ml | 3.5e+11 cfu/ml | 4e+11 cfu/ml | 1.2e+10 cfu/ml
